Results: US20240247080A1, “GLP1/GIP/NPY2 RECEPTOR TRIPLE AGONISTS” (Boehringer Ingelheim International GmbH, priority 2022, published 2024)
Positions count from the first letter of the chain named. One block for each binder: values may come before it. Starred links: 1 amine or outer side, 2 acyl side, 3 side chain; linkers in the order of their positions; H or OH if unused. Non-standard residues stand in square brackets, D forms with d. Groups on a side chain read outwards from the residue. No end group written: not given here. *: point of attachment. C20 diacid = O=C(O)CCCCCCCCCCCCCCCCCCC(=O)*; γGlu = O=C(O)[C@H](CCC(=O)[*:2])N[*:1]; εLys = N[C@@H](CCCCN[*:1])C(=O)[*:2]; AEEA = NCCOCCOCC(=O)O; Aib = CC(C)(N)C(=O)O

Legend:
Test in all cases: cell-based or functional assay
[1] = target: human GLP-1 receptor (human, UniProt P43220 24-463)
[2] = target: T1, human GIP receptor (human, UniProt P48546 22-466)
T1 sequence (looked up): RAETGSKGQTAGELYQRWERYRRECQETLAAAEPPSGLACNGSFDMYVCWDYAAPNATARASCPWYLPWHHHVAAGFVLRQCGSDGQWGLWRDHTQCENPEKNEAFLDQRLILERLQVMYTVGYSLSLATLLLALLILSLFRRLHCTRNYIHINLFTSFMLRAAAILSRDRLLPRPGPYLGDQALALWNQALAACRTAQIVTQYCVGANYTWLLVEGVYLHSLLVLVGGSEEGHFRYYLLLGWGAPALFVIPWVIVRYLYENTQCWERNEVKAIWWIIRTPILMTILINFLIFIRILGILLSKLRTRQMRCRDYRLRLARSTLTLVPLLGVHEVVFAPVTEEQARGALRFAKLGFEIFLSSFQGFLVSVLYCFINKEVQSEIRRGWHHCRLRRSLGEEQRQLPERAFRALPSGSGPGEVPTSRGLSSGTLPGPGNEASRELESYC

[3] = target: T2, human neuropeptide Y2 (NPY2) receptor (human, UniProt P49146 1-381)
T2 sequence (looked up): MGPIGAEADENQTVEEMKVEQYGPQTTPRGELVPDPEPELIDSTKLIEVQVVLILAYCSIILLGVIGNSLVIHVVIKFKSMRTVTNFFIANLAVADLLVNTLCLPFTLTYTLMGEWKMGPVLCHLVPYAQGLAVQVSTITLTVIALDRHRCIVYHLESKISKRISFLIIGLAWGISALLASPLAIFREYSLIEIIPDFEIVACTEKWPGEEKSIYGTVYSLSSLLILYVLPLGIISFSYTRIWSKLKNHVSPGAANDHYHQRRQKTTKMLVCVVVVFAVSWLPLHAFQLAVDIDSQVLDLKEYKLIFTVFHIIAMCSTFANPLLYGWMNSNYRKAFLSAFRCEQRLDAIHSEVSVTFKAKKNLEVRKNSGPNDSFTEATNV

B1: Compound 68 (peptide)
peptide: YXEGTFTSDYSIXLEKQAQXAFVEWLIKGGPSSGASLRHYYNRXTRQRY
modifications: Aib at 2, 13, 20, 44; K28 side chain: C20DA-gGlu-gGlu-gGlu-gGlu-gGlu-gGlu-eLys; C-terminal NH2
EC50, CreLuc assay, 0.5% hP [1]: 0.12 nM | EC50, CreLuc assay, 100% hP [1]: 2.19 nM | EC50, CreLuc assay, 0.5% hP [2]: 0.32 nM | EC50, CreLuc assay, 100% hP [2]: 2.05 nM | EC50, CreLuc assay, 0.5% hP [3]: 53.9 nM | EC50, CreLuc assay, 100% hP [3]: 139 nM

B3: Compound 69 (peptide)
peptide: B1 peptide with Q17E, A18K, R43W, X44L
modifications: Aib at 2, 13, 20; K28 side chain: C20DA-gGlu-gGlu-gGlu-gGlu-gGlu-gGlu-eLys; C-terminal NH2
EC50, CreLuc assay, 0.5% hP [1]: 1.48 nM | EC50, CreLuc assay, 100% hP [1]: 27.8 nM | EC50, CreLuc assay, 0.5% hP [2]: 0.8 nM | EC50, CreLuc assay, 100% hP [2]: 2.95 nM | EC50, CreLuc assay, 0.5% hP [3]: 8.41 nM | EC50, CreLuc assay, 100% hP [3]: 26.6 nM

B4: Compound 66 (peptide)
peptide: B1 peptide with K16E, Q17E, R43W, X44L
modifications: Aib at 2, 13, 20; K28 side chain: C20DA-gGlu-gGlu-gGlu-gGlu-gGlu-gGlu-eLys; C-terminal NH2
EC50, CreLuc assay, 0.5% hP [1]: 0.24 nM | EC50, CreLuc assay, 100% hP [1]: 11.6 nM | EC50, CreLuc assay, 0.5% hP [2]: 0.64 nM | EC50, CreLuc assay, 100% hP [2]: 3.06 nM | EC50, CreLuc assay, 0.5% hP [3]: 18.8 nM | EC50, CreLuc assay, 100% hP [3]: 85.6 nM

B6: Compound 8 (peptide)
peptide: B1 peptide with K16E, E24Q, A35Q, R43W, X44L
modifications: Aib at 2, 13, 20; K28 side chain: C20DA-gGlu-Glu-gGlu-gGlu-gGlu-gGlu-eLys; C-terminal NH2
EC50, CreLuc assay, 0.5% hP [1]: 0.04 nM | EC50, CreLuc assay, 100% hP [1]: 1.05 nM | EC50, CreLuc assay, 0.5% hP [2]: 0.12 nM | EC50, CreLuc assay, 100% hP [2]: 1.72 nM | EC50, CreLuc assay, 0.5% hP [3]: 11.6 nM | EC50, CreLuc assay, 100% hP [3]: 43 nM

Binder: Y[Aib]EGTFTSDYSI[Aib]LEKQAQ[Aib]AFVQWLIKGGPSYYASLRHYYNWLTRQRY-NH2 (not fully specified (residue 28); also: TFA salt) [Compound 59]
EC50, CreLuc assay, 0.5% hP [1]: 0.39 nM | EC50, CreLuc assay, 100% hP [1]: 8.81 nM | EC50, CreLuc assay, 0.5% hP [2]: 0.49 nM | EC50, CreLuc assay, 100% hP [2]: 5.75 nM | EC50, CreLuc assay, 0.5% hP [3]: 10.8 nM | EC50, CreLuc assay, 100% hP [3]: 29.9 nM

Binder: Y[Aib]EGTFTSDYSI[Aib]LEKQAQ[Aib]AFVQWLIK([εLys-γGlu-γGlu-γGlu-γGlu-γGlu-C20 diacid])GGPEEPASLRHYYNWLTRQRY-NH2 (also: TFA salt) [Compound 67]
EC50, CreLuc assay, 0.5% hP [1]: 0.38 nM | EC50, CreLuc assay, 100% hP [1]: 27.4 nM | EC50, CreLuc assay, 0.5% hP [2]: 0.29 nM | EC50, CreLuc assay, 100% hP [2]: 6.18 nM | EC50, CreLuc assay, 0.5% hP [3]: 13.7 nM | EC50, CreLuc assay, 100% hP [3]: 78.9 nM

The remaining lines, values ahead:

EC50, CreLuc assay, 0.5% hP [1]: 0.08 nM | EC50, CreLuc assay, 100% hP [1]: 1.13 nM | EC50, CreLuc assay, 0.5% hP [2]: 0.1 nM | EC50, CreLuc assay, 100% hP [2]: 0.62 nM | EC50, CreLuc assay, 0.5% hP [3]: 53.4 nM | EC50, CreLuc assay, 100% hP [3]: 110 nM
B2: Compound 74 (peptide)
peptide: B1 peptide with L37X, R43W, X44L
modifications: Aib at 2, 13, 20, 37; DTyr 49; K28 side chain: C20DA-gGlu-gGlu-gGlu-gGlu-gGlu-gGlu-eLys; C-terminal NH2

EC50, CreLuc assay, 0.5% hP [1]: 0.1 nM | EC50, CreLuc assay, 100% hP [1]: 1.91 nM | EC50, CreLuc assay, 0.5% hP [2]: 0.2 nM | EC50, CreLuc assay, 100% hP [2]: 1.39 nM | EC50, CreLuc assay, 0.5% hP [3]: 31.5 nM | EC50, CreLuc assay, 100% hP [3]: 158 nM
B5: Compound 76 (peptide)
peptide: B1 peptide with L37X, Y41X, R43W, X44L
modifications: Aib at 2, 13, 20, 37, 41; K28 side chain: C20DA-gGlu-gGlu-Glu-gGlu-gGlu-gGlu-eLys; C-terminal NH2

EC50, CreLuc assay, 0.5% hP [1]: 0.15 nM | EC50, CreLuc assay, 100% hP [1]: 2.87 nM | EC50, CreLuc assay, 0.5% hP [2]: 0.29 nM | EC50, CreLuc assay, 100% hP [2]: 2.12 nM | EC50, CreLuc assay, 0.5% hP [3]: 29.1 nM | EC50, CreLuc assay, 100% hP [3]: 149 nM
B7: Compound 72 (peptide)
peptide: B1 peptide with S36D, Y41L, R43W, X44L
modifications: Aib at 2, 13, 20; K28 side chain: C20DA-gGlu-gGlu-gGlu-gGlu-gGlu-gGlu-eLys; C-terminal NH2

EC50, CreLuc assay, 0.5% hP [1]: 0.35 nM | EC50, CreLuc assay, 100% hP [1]: 23.9 nM | EC50, CreLuc assay, 0.5% hP [2]: 0.54 nM | EC50, CreLuc assay, 100% hP [2]: 12.4 nM | EC50, CreLuc assay, 0.5% hP [3]: 7.12 nM | EC50, CreLuc assay, 100% hP [3]: 33.5 nM
Binder: Y[Aib]EGTFTSDYSI[Aib]LEKQAQ[Aib]AFVEWLIK([εLys-Glu-γGlu-γGlu-γGlu-γGlu-C20 diacid])GGPSYYVSLRHYYNWLTRQRY-NH2 (also: TFA salt) [Compound 75]

EC50, CreLuc assay, 0.5% hP [1]: 0.24 nM | EC50, CreLuc assay, 100% hP [1]: 16.2 nM | EC50, CreLuc assay, 0.5% hP [2]: 0.32 nM | EC50, CreLuc assay, 100% hP [2]: 2.16 nM | EC50, CreLuc assay, 0.5% hP [3]: 13.7 nM | EC50, CreLuc assay, 100% hP [3]: 46.3 nM
Binder: Y[Aib]EGTFTSDYSI[Aib]LEKQAQ[Aib]AFVQWLIK([AEEA-AEEA-γGlu-γGlu-γGlu-γGlu-C20 diacid])GGPEEPASLRHYYNWLTRQRY-NH2 (also: TFA salt) [Compound 77]
